{"source": "paper PMC7978432", "biological_target": "SARS-CoV-2 S2GΔHR2-5GS-1TD0 (SARS-CoV-2 | not stated) (UniProt P0DTC2)", "experiment": "native gel or EMSA"}
{"substance": "SARS-CoV-2 S2GΔHR2-5GS-1TD0 (from UniProt P0DTC2 14-1149)", "values": [{"measurement": "stoichiometry N", "value": 3}]}
